Measurements: article PMC2918618, “Characterization of the TnsD-attTn7 complex that promotes site-specific insertion of Tn7” (Mobile DNA, 2010)

Assays:
[1] = biological target: T1, TnsD wt (Escherichia coli (transposon Tn7)) (UniProt P13991); test: EMSA; details: Gel-shift buffer not given (as described in ref. 6); TnsD stored in 500 mM KCl, 50 mM Tris-HCl pH 8.0, 1 mM EDTA, 2 mM DTT, 25% glycerol
T1 sequence: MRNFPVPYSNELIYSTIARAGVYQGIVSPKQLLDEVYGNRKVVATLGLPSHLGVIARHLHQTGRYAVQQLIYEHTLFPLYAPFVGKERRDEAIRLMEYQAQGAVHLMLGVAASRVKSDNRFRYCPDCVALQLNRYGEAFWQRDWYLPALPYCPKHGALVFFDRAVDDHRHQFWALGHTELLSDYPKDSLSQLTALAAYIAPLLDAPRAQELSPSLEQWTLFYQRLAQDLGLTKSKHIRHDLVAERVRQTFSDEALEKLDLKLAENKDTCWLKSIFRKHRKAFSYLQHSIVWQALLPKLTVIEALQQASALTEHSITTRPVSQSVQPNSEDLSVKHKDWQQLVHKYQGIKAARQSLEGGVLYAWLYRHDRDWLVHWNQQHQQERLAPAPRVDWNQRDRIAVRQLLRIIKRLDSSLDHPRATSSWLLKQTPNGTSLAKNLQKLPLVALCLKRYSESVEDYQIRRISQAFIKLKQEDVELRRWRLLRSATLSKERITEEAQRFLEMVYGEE

Jun = test: two-hybrid; yeast two-hybrid (ProQuest Two-Hybrid System); TnsD in pDBLeu (Gal4-DB), TnsC in pPC86 (Gal4-AD); read-out β-galactosidase activity; empty vectors gave 0.075
RB = test: as above
TnsD (1 to 507) wt = biological target: T2, TnsD (1 to 507) wt (E. coli (transposon Tn7), UniProt P13991 1-508); test: as above; details: partners not purified
T2 construct: TnsD, target site-selector protein of the bacterial transposon Tn7, residues 1 to 507 (full-length TnsD is 507 aa); TnsD was cloned into pDBLeu (ProQuest Two-Hybrid System); also called full-length TnsD; source: yeast two-hybrid fusion
T2 sequence (looked up): T1 sequence

TnsD (1 to 350) = biological target: T3, TnsD (1 to 350) (E. coli (transposon Tn7), UniProt P13991 1-350); test: as above; details: partners not purified
T3 construct: TnsD of transposon Tn7, residues 1 to 350; source: yeast two-hybrid fusion
T3 sequence (looked up): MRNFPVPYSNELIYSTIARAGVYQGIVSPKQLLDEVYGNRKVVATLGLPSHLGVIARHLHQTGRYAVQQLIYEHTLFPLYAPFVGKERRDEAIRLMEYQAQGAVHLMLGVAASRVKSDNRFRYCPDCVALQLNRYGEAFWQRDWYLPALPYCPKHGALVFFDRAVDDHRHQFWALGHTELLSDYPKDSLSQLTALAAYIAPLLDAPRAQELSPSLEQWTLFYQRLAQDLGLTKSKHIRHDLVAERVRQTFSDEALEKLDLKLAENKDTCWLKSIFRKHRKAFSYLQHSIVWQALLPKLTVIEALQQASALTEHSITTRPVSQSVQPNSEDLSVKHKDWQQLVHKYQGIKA

TnsD (1 to 309) = biological target: T4, TnsD (1 to 309) (E. coli (transposon Tn7), UniProt P13991 1-309); test: as above; details: partners not purified
T4 construct: TnsD of transposon Tn7, residues 1 to 309; source: yeast two-hybrid fusion
T4 sequence (looked up): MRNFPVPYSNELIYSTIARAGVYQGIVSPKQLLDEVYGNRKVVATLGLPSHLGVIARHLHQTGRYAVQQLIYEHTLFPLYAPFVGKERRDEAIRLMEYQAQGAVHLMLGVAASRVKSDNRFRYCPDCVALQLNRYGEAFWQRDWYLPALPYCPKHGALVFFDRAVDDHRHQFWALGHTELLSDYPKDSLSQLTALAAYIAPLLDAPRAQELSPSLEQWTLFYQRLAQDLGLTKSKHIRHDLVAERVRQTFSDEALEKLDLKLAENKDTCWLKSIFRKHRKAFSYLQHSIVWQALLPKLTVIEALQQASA

TnsD (1 to 399) = biological target: T5, TnsD (1 to 399) (E. coli (transposon Tn7), UniProt P13991 1-399); test: as above; details: partners not purified
T5 construct: TnsD of transposon Tn7, residues 1 to 399; source: yeast two-hybrid fusion
T5 sequence (looked up): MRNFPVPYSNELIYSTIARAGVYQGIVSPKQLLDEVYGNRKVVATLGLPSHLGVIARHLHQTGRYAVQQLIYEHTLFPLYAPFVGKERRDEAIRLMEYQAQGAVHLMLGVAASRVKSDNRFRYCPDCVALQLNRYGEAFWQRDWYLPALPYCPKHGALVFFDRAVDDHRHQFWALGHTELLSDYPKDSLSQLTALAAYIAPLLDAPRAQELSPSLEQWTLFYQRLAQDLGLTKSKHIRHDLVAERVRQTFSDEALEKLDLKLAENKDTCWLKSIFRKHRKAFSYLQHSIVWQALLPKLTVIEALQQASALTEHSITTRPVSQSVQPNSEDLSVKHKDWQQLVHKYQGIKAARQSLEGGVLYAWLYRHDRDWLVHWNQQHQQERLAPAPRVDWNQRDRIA

TnsD (1 to 375) = biological target: T6, TnsD (1 to 375) (E. coli (transposon Tn7), UniProt P13991 1-375); test: as above; details: partners not purified
T6 construct: TnsD of transposon Tn7, residues 1 to 375; source: yeast two-hybrid fusion
T6 sequence (looked up): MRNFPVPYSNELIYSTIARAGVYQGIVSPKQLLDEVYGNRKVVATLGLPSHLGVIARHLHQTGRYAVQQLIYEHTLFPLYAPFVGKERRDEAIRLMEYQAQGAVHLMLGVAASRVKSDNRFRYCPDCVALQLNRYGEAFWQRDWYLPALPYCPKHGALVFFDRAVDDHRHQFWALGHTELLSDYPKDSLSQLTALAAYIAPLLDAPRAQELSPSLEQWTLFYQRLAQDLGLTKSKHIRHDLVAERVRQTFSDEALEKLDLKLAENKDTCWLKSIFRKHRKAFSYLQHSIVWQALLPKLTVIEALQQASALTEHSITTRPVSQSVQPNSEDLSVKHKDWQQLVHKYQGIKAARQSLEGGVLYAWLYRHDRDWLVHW

Sequence of Jun (P05627 whole entry, the tested form may be a part): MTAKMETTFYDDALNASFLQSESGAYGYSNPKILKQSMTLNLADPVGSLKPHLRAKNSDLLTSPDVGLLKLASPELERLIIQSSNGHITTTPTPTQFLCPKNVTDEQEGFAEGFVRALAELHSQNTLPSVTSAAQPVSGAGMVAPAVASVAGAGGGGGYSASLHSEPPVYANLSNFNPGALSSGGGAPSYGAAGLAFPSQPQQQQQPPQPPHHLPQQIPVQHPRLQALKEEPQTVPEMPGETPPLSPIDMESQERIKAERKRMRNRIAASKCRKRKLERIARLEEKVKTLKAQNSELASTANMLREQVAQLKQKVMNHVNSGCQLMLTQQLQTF
Sequence of RB (P06400 2-928): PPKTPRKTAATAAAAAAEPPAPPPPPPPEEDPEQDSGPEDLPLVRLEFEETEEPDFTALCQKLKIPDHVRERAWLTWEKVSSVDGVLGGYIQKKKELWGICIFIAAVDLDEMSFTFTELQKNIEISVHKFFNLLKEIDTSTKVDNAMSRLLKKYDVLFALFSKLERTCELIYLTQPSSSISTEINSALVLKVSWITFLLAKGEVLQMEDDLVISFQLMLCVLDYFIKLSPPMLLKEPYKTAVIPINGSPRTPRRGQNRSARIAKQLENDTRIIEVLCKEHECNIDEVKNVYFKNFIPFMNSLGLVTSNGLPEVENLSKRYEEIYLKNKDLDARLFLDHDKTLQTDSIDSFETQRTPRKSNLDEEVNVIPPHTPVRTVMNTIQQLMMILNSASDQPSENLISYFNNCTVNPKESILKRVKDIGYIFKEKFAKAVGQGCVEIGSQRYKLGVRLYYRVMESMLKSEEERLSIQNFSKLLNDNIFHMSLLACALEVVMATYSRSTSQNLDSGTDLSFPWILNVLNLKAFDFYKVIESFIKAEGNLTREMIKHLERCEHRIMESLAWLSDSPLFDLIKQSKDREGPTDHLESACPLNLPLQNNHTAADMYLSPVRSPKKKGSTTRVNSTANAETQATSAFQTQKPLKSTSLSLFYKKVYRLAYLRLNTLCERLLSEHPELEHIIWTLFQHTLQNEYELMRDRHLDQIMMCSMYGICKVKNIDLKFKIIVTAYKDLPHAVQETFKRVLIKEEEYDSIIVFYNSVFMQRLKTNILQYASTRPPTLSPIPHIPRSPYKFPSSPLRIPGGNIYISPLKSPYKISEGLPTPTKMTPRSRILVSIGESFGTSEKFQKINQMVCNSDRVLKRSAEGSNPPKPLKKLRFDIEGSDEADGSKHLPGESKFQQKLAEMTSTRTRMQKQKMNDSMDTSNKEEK

Molecule “CCGCGTAACCTGGCAAAATCGTTTACGGTTGAGTAA (double strand) [attTn7 +37 mutant]” has a binding signal (relative to wt site) [1] of 0.5.

For “CCGCTTAACCTGGCAAAATCGGTTACGGTTGAGTAA (double strand) [attTn7 +54 mutant]”, the binding signal (relative to wt site) [1] was less than 0.2.

Fos (natural protein) showed a β-galactosidase activity (Jun) of 5.

“CCGCGTAACCTGGCAAAATCGGTTACGTTTGAGTAA (double strand) [attTn7 +31 mutant]” gave a binding signal (relative to wt site) [1] of less than 0.2.

Work on “CCGCGTCACCTGGCAAAATCGGTTACGGTTGAGTAA (double strand) [attTn7 +52 mutant]” yielded a binding signal (relative to wt site) [1] of 0.5.

Molecule “CCGCGTAACCTGGCACAATCGGTTACGGTTGAGTAA (double strand) [attTn7 +43 mutant]” has a binding signal (relative to wt site) [1] of less than 0.2.

“CCGCGTACCCTGGCAAAATCGGTTACGGTTGAGTAA (double strand) [attTn7 +51 mutant]” gave a binding signal (relative to wt site) [1] of less than 0.2.

“CCGCGTAACCTGGCAAAATCGGTTAAGGTTGAGTAA (double strand) [attTn7 +33 mutant]” was tested, and the binding signal (relative to wt site) [1] was less than 0.2.

Work on “CCGCGTAACCTGGAAAAATCGGTTACGGTTGAGTAA (double strand) [attTn7 +45 mutant]” yielded a binding signal (relative to wt site) [1] of less than 0.2.

With “CCGCGTAACCGGGCAAAATCGGTTACGGTTGAGTAA (double strand) [attTn7 +48 mutant]” the binding signal (relative to wt site) [1] was 0.5.

“CCGCGTAACCTGGCAACATCGGTTACGGTTGAGTAA (double strand) [attTn7 +42 mutant]” gave a binding signal (relative to wt site) [1] of less than 0.2.

E2F1 (natural protein) gave a β-galactosidase activity (RB) of 1.

In the case of “CCGCGTAACCTGGCAAAATCGGTTACGGGTGAGTAA (double strand) [attTn7 +30 mutant]”, the binding signal (relative to wt site) [1] is reported as 0.5.

B1: TnsC (1 to 293) (domain or fragment, E. coli (transposon Tn7), UniProt P05846 1-293, looked up)
chain: MSATRIQAVYRDTGVEAYRDNPFIEALPPLQESVNSAASLKSSLQLTSSDLQKSRVIRAHTICRIPDDYFQPLGTHLLLSERISVMIRGGYVGRNPKTGDLQKHLQNGYERVQTGELETFRFEEARSTAQSLLLIGCSGSGKTTSLHRILATYPQVIYHRELNVEQVVYLKIDCSHNGSLKEICLNFFRALDRALGSNYERRYGLKRHGIETMLALMSQIANAHALGLLVIDEIQHLSRSRSGGSQEMLNFFVTMVNIIGVPVMLIGTPKAREIFEADLRSARRGAGFGAIFW
notes: TnsC of transposon Tn7, residues 1 to 293; source: yeast two-hybrid fusion
Molecule B1 has a β-galactosidase activity (TnsD (1 to 507) wt) of 0.2.

B2: TnsC (1 to 555) wt (natural protein, E. coli (transposon Tn7), UniProt P05846 1-555, looked up)
chain: MSATRIQAVYRDTGVEAYRDNPFIEALPPLQESVNSAASLKSSLQLTSSDLQKSRVIRAHTICRIPDDYFQPLGTHLLLSERISVMIRGGYVGRNPKTGDLQKHLQNGYERVQTGELETFRFEEARSTAQSLLLIGCSGSGKTTSLHRILATYPQVIYHRELNVEQVVYLKIDCSHNGSLKEICLNFFRALDRALGSNYERRYGLKRHGIETMLALMSQIANAHALGLLVIDEIQHLSRSRSGGSQEMLNFFVTMVNIIGVPVMLIGTPKAREIFEADLRSARRGAGFGAIFWDPIQQTQRGKPNQEWIAFTDNLWQLQLLQRKDALLSDEVRDVWYELSQGVMDIVVKLFVLAQLRALALGNERITAGLLRQVYQDELKPVHPMLEALRSGIPERIARYSDLVVPEIDKRLIQLQLDIAAIQEQTPEEKALQELDTEDQRHLYLMLKEDYDSSLLIPTIKKAFSQNPTMTRQKLLPLVLQWLMEGETVVSELEKPSKSKKVSAIKVVKPSDWDSLPDTDLRYIYSQRQPEKTMHERLKGKGVIVDMASLFKQAG
notes: TnsC, transposition protein of the bacterial transposon Tn7, residues 1 to 555 (full-length is 555 aa); TnsC was cloned into pPC86 (ProQuest Two-Hybrid System); also called full-length TnsC; source: yeast two-hybrid fusion
Work on B2 yielded a β-galactosidase activity (TnsD (1 to 350)) of 4.5, a β-galactosidase activity (TnsD (1 to 507) wt) of 1 and a β-galactosidase activity (TnsD (1 to 309)) of 4.5. It also gave a β-galactosidase activity (TnsD (1 to 399)) of 4.5 and a β-galactosidase activity (TnsD (1 to 375)) of 5.

B3: TnsC (1 to 480) (domain or fragment, E. coli (transposon Tn7), UniProt P05846 1-480, looked up)
chain: MSATRIQAVYRDTGVEAYRDNPFIEALPPLQESVNSAASLKSSLQLTSSDLQKSRVIRAHTICRIPDDYFQPLGTHLLLSERISVMIRGGYVGRNPKTGDLQKHLQNGYERVQTGELETFRFEEARSTAQSLLLIGCSGSGKTTSLHRILATYPQVIYHRELNVEQVVYLKIDCSHNGSLKEICLNFFRALDRALGSNYERRYGLKRHGIETMLALMSQIANAHALGLLVIDEIQHLSRSRSGGSQEMLNFFVTMVNIIGVPVMLIGTPKAREIFEADLRSARRGAGFGAIFWDPIQQTQRGKPNQEWIAFTDNLWQLQLLQRKDALLSDEVRDVWYELSQGVMDIVVKLFVLAQLRALALGNERITAGLLRQVYQDELKPVHPMLEALRSGIPERIARYSDLVVPEIDKRLIQLQLDIAAIQEQTPEEKALQELDTEDQRHLYLMLKEDYDSSLLIPTIKKAFSQNPTMTRQKLLPLVL
notes: TnsC of transposon Tn7, residues 1 to 480; also called TnsC with deletion of 75 amino acids from the C terminus; source: yeast two-hybrid fusion
For B3, the β-galactosidase activity (TnsD (1 to 507) wt) was 1.

B4: TnsC (1 to 384) (domain or fragment, E. coli (transposon Tn7), UniProt P05846 1-384, looked up)
chain: MSATRIQAVYRDTGVEAYRDNPFIEALPPLQESVNSAASLKSSLQLTSSDLQKSRVIRAHTICRIPDDYFQPLGTHLLLSERISVMIRGGYVGRNPKTGDLQKHLQNGYERVQTGELETFRFEEARSTAQSLLLIGCSGSGKTTSLHRILATYPQVIYHRELNVEQVVYLKIDCSHNGSLKEICLNFFRALDRALGSNYERRYGLKRHGIETMLALMSQIANAHALGLLVIDEIQHLSRSRSGGSQEMLNFFVTMVNIIGVPVMLIGTPKAREIFEADLRSARRGAGFGAIFWDPIQQTQRGKPNQEWIAFTDNLWQLQLLQRKDALLSDEVRDVWYELSQGVMDIVVKLFVLAQLRALALGNERITAGLLRQVYQDELKPVHP
notes: TnsC of transposon Tn7, residues 1 to 384; also called TnsC with deletion of 171 amino acids from the C terminus; source: yeast two-hybrid fusion
Work on B4 yielded a β-galactosidase activity (TnsD (1 to 507) wt) of 1.
